# Test results published in patent publication US20180280504A1, “GLYCAN-INTERACTING COMPOUNDS AND METHODS OF USE” (SIAMAB THERAPEUTICS, INC., priority 2014, published 2018).
# B1: 18C7: anti-STn mouse monoclonal, IgG2c κ, from mouse #4436; VH SEQ ID NO: 4, VL SEQ ID NO: 5 (antibody, V domains shown)
# VH: QVTLKESGPGILQPSQTLSLTCSFSGFSLSTFGMGVGWIRQPSGKGLEWLAHIWWDDDKYYNPALKSRLTISKDTSKNQVFLKIANVDTADTATYYCARIAYYYGSERDYWGQGTTLTVSS
# VL: QIVLTQSPAIMSASPGEKVTMTCSASSSISYMHWYHQKPGTSPKRWIYDTSKLASGVPARFSGSGSGTSYSLTISSMEAEDAATYYCHQRSSYTFGGGTKLEIKR
# B2: S3F: 3F1 variable domains combined with IgG2a constant domains; heavy chain SEQ ID NO: 63, light chain SEQ ID NO: 64 (antibody)
# heavy: QVQLQQSDAELVKPGASVKISCKASGYTFTDHAIHWVKQKPEQGLDWIGYISPGNGDIKYNEKFKDKVTLTADKSSSTACMHLNSLTSEDSAVYFCKRSLLALDYWGQGTTLTVSSAKTTAPSVYPLAPVCGDTTGSSVTLGCLVKGYFPEPVTLTWNSGSLSSGVHTFPAVLQSDLYTLSSSVTVTSSTWPSQSITCNVAHPASSTKVDKKIEPRGPTIKPCPPCKCPAPNLLGGPSVFIFPPKIKDVLMISLSPIVTCVVVDVSEDDPDVQISWFVNNVEVHTAQTQTHREDYNSTLRVVSALPIQHQDWMSGKEFKCKVNNKDLPAPIERTISKPKGSVRAPQVYVLPPPEEEMTKKQVTLTCMVTDFMPEDIYVEWTNNGKTELNYKNTEPVLDSDGSYFMYSKLRVEKKNWVERNSYSCSVVHEGLHNHHTTKSFSRTPGK
# light: DIVMTQSHKFMSTSVGDRVSITCKASQDVGTNIAWYQQKPGRSPKVLIYSASTRHTGVPDRFTGSGSGTDFTLTISNVQSEDLTDYFCQQYSSFPLTFGVGTKLELKRADAAPTVSIFPPSSEQLTSGGASVVCFLNNFYPKDINVKWKIDGSERQNGVLNSWTDQDSKDSTYSMSSTLTLTKDEYERHNSYTCEATHKTSTSPIVKSFNRNEC
# B3: 7G9: anti-STn mouse monoclonal, IgG2b κ, from mouse #4407; VH SEQ ID NO: 12, VL SEQ ID NO: 9 (antibody, V domains shown)
# VH: QVQLKESGPGLVAPSQNLSITCTVSGFSLTSYGVNWVRQPPGKGLEWLGVIWGDGSTNYHSALISRLIISKENSKSQVFLKLNSLQTNDTATYYCTKGFVYWGQGTLVTVSA
# VL: QIVLTQSPAIMSASPGEKVTMTCSASSSVSYMHWYQQKSGTSPKRWIFDTSKLASGVPARFSGSGSGTSYSLTISSMEAEDAATYYCQQWSSNLLTFGAGTKLELK
# Legend:
# [1] = Glycan array, Tn and other glycans; type: binding; conditions: glycan microarray
# Procedure: Optimized glycan arrays comprise 71 chemically synthesized and well-defined glycans, most of which comprise Neu5Ac and Neu5Gc glycan pairs.
# 300 ml of epoxy blocking buffer is prepared by combining 15 ml of 2 M Tris buffer (pH 8) with 0.9 ml of 16.6 M ethanolamine and 284.1 ml of distilled water. The solution was brought to a final pH of 9.0 with HCl. The solution is filtered using a 0.2 μM nitrocellulose membrane. The epoxy buffer solution as well as 1 L of distilled water are pre-warmed to 50° C. Glass slides are arranged in a slide holder and quickly submerged in a staining tub with the warmed epoxy blocking buffer. Slides are incubated in the epoxy blocking buffer for 1 hour at 50° C. with periodic shaking to deactivate epoxy binding sites. Next, slides are rinsed and blocked with PBS with 1% OVA at 25° C. for one hour. Serum samples with polyclonal antibodies (1:1000) or purified monoclonal antibodies (1 ug/mL), are diluted in PBS with 1% OVA and added to the glycan array for one hour at 25° C. After extensive washing, binding of antibodies are detected by incubating glycan microarray slides with Cy3-conjugated anti-mouse IgG (Jackson Immunoresearch, West Grove, Pa.) for one hour. Slides are then washed extensively, dried and scanned with a Genepix 4000B scanner (Laser at 100%; gain at 350; 10 μm pixels). […]
# [2] = tested on: MDA-MD-231 STn+ cells; experiment: Fluorescence microscopy of ALEXA FLUOR 488-S3F binding and internalization, STn+ cells; type: cell-based, human
# Procedure: To analyze the internalization of antibodies by fluorescence microscopy, the following procedure was carried out. MDA-MD-231 STn− cells and MDA-MD-231 STn+ cells were cultured in Eagles minimum essential medium containing 10% fetal calf serum, 100 μg/ml penicillin, 100 UI/ml streptomycin, 45 μg/ml gentamycin, as well as 1 mg/ml G418 for STn+ cells. Cells were sub-cultured by treatment with Accutase buffer and seeded in microscope chamber slides at 10,000 cells/chamber in the case of STn− cells and 20,000 cells/chamber in the case of STn+ cells. All cells were cultured overnight at 37° C. Cells were subsequently incubated with either 1.5, 5 or 10 μg/ml S3F conjugated with ALEXA FLUOR® 488 dye (Thermo Fisher Scientific, Pittsburgh, Pa.) in complete media at 4° C. for 1 hour. Cells were then washed with ice-cold PBS in order to remove antibodies that were not bound to the cell surface. Complete media was then administered to each chamber and the cells were incubated at 37° C. for either 0, 15, 30 or 60 minutes in order to allow internalization of any surface-bound antibodies.
# Following each time point, cells were washed twice with PBS in order to remove unbound antibodies. […] Cells were visualized the following day by analysis on a Nikon Eclipse Ti fluorescence microscope.
# [3] = MDA-MB-231-STn xenograft model, percent body weight change; type: in vivo, mouse; conditions: 5 mg/kg i.p. once weekly
# From the text: To evaluate antibody drug conjugates (ADCs) as single agents in an MDA-MB-231-STn Human Breast Tumor Xenograft model, 40 ICR SCID female mice age range 6-8 weeks were randomly separated into four separate groups, one vehicle control and three ADC treatments, then maintained individually with food/water ad libitum (see the following Table).
# (§1) Animals were inoculated in the subcutaneous right flank with 5×10^6 breast tumor cells (MDA-MB-231-STn) in matrigel, mean tumor size was 175-225 mm^3 at study initiation. Animals were given either vehicle or antibody drug conjugates (5 mg/kg) by intraperitoneal injection once weekly. Tumor volume and percent body weight change were determined once weekly until study termination. The study was terminated when the tumor in the vehicle control animal reached a mean tumor weight ≥1500 mm^3. SE refers to “standard error.”
# [4] = tested on: MDA-MB-231-STn Human Breast Tumor Xenograft; experiment: MDA-MB-231-STn xenograft model, clinical observations of tumors; type: in vivo, mouse; conditions: 5 mg/kg i.p. once weekly
# Procedure: as §1
# Clinical observations of tumor shape, size and disposition were noted throughout the study.
# [5] = tested on: E3-STn tumors; experiment: E3-STn murine breast tumor allograft model, tumor volume; type: in vivo, mouse; conditions: for Average Tumor Volume (mm^3): 7G9-1A8 25 mg/kg i.p. twice weekly for 3 weeks, Paclitaxel daily for 5 days
# Procedure: 3 test articles were evaluated during the study.
# Standard deviation values are listed in parenthesis.
molecule,measurement,setting,value
B1,binding to Tn antigen or other glycans,[1],No binding
B2,internalization by STn+ cells,"[2]; 37° C. 15-60 min, acid wash",capable of being internalized by STn+ cells
same,binding to the surface of STn+ cells,"[2]; 488-S3F conjugate at 1.5, 5, 10 μg/ml, 4° C.",binds the surface of STn+ cells
same,body weight at study termination,[3],overall increase in body weight
same,Percent Body Weight Change,[3]; study day 1,0%
same,Percent Body Weight Change,[3]; study day 4,−0.01%
same,Percent Body Weight Change,[3]; study day 8,−1.29%
same,Percent Body Weight Change,[3]; study day 10,−1.36%
same,Percent Body Weight Change,[3]; study day 15,−1.09%
same,Percent Body Weight Change,[3]; study day 18,−0.51%
same,Percent Body Weight Change,[3]; study day 23,1.49%
same,Percent Body Weight Change,[3]; study day 25,2.17%
same,"clinical observations of tumor shape, size and disposition",[4],fewer severe tumors with fluid secretion
B3,average tumor volumes as compared to Paclitaxel and vehicle control,[5]; 25 mg/kg i.p. twice weekly for 3 weeks,greatly reduced
same,Average Tumor Volume (mm^3),[5]; day 1,112.4 mm^3
same,Average Tumor Volume (mm^3),[5]; day 4,148.7 mm^3
same,Average Tumor Volume (mm^3),[5]; day 6,161.9 mm^3
same,Average Tumor Volume (mm^3),[5]; day 8,152.8 mm^3
same,Average Tumor Volume (mm^3),[5]; day 11,136.3 mm^3
same,Average Tumor Volume (mm^3),[5]; day 13,118.4 mm^3
same,Average Tumor Volume (mm^3),[5]; day 15,105.1 mm^3
same,Average Tumor Volume (mm^3),[5]; day 18,99.5 mm^3
same,Average Tumor Volume (mm^3),[5]; day 20,91.7 mm^3
same,Average Tumor Volume (mm^3),[5]; day 22,105.2 mm^3
same,Average Tumor Volume (mm^3),[5]; day 26,102.8 mm^3
same,Average Tumor Volume (mm^3),[5]; day 27,107.4 mm^3
same,Average Tumor Volume (mm^3),[5]; day 29,147.1 mm^3
same,Average Tumor Volume (mm^3),[5]; day 32,160.6 mm^3
same,Average Tumor Volume (mm^3),[5]; day 34,164.7 mm^3
same,Average Tumor Volume (mm^3),[5]; day 36,212.1 mm^3
same,Average Tumor Volume (mm^3),[5]; day 39,206.6 mm^3
same,Average Tumor Volume (mm^3),[5]; day 41,235.3 mm^3
